Results: publication PMC5531539 (PLoS ONE, 2017)
Numbering of substitutions follows the chain as printed.

B1: bH1 Fab LS30dM (Fab, V domains shown)
VH: not shown
VL: DIQMTQSPSSLSASVGDRVTITCRASQDIPRSIMGYVAWYQQKPGKAPKLLIYWGSYLYSGVPSRFSGSGSGTDFTLTISSLQPEDFATYYCQQHYTTPPTFGQGTKVEIK
notes: as the heavy chain of Sm3; bH1 Fab light chain, parent as in Sm3; numbers count on: Bostrom et al; source: CHO-3E7, co-transfected, purified (His tag)
B2: bH1 Fab LS30dL (Fab, V domains shown)
VH: not shown
VL: B1 VL with M34L
notes: as for B1
B3: bH1 Fab (parent) (Fab, V domains shown)
VH: not shown
VL: B1 VL with M34S
notes: Fab heavy chain of bH1; numbers count on: Bostrom et al. [8]; Fab light chain of bH1; also called WT; source: CHO-3E7, co-transfected, His-tag purified
B4: bH1 Fab HD98W HY33W HG99D (Fab, V domains shown)
VH: EVQLVESGGGLVQPGGSLRLSCAASGFNIKDTWIHWVRQAPGKGLEWVARIYPTNGYTRYADSVKGRFTISADTSKNTAYLQMNSLRAEDTAVYYCSRWGGWDFYAMDYWGQGTLVTVSS
VL: B1 VL with M34S
notes: as the heavy chain of m4 with the stated changes; numbers count on: Bostrom et al. [8]; as the light chain of m4; also called best triple mutant (bH1-VEGF); source: CHO-3E7, co-transfected, His-tag purified
B5: bH1 Fab HD98W HY33W HG99M (Fab, V domains shown)
VH: B4 VH with D103M
VL: B1 VL with M34S
notes: as the heavy chain of m4 with the stated changes; numbers count on: Bostrom et al. [8]; as the light chain of m4; source: CHO-3E7, co-transfected, His-tag purified
B6: bH1 Fab HD98F HD31K LI29K (Fab, V domains shown)
VH: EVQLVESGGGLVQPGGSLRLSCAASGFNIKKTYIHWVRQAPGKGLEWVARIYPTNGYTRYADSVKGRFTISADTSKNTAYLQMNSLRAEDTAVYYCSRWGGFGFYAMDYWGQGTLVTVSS
VL: B1 VL with I29K, M34S
notes: as the heavy chain of m4 with the stated changes; numbers count on: Bostrom et al. [8]; as the light chain of m4 with the stated change; source: CHO-3E7, co-transfected, His-tag purified
B7: bH1 Fab HD98Y HD31K LI29K (Fab, V domains shown)
VH: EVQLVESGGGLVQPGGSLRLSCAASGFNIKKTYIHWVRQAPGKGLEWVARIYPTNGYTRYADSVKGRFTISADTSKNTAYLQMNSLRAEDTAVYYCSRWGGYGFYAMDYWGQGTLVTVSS
VL: B1 VL with I29K, M34S
notes: as for B6
B8: bH1 Fab HD98K HD31K LI29R (Fab, V domains shown)
VH: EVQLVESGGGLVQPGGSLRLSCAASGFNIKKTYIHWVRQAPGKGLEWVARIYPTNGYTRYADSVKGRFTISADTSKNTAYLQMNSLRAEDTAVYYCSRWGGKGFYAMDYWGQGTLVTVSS
VL: B1 VL with I29R, M34S
notes: as for B6
B9: bH1 Fab HD98F HD31K LI29R (Fab, V domains shown)
VH: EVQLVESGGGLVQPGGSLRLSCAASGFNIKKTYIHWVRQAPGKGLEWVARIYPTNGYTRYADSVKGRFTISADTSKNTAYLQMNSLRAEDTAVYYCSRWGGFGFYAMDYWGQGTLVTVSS
VL: B1 VL with I29R, M34S
notes: as for B6
B10: bH1 Fab HD98K HD31K LI29K (Fab, V domains shown)
VH: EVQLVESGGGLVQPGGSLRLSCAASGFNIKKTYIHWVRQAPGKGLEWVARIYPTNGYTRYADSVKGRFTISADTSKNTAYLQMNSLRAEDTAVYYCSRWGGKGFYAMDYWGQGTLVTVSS
VL: B1 VL with I29K, M34S
notes: as for B6
B11: bH1 Fab HD98Y HD31K LI29R (Fab, V domains shown)
VH: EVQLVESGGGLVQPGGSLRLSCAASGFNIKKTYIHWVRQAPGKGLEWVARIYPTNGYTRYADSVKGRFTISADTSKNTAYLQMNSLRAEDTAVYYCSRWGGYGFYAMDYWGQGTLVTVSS
VL: B1 VL with I29R, M34S
notes: as the heavy chain of m4 with the stated changes; numbers count on: Bostrom et al. [8]; as the light chain of m4 with the stated change; also called best triple mutant (bH1-HER2); source: CHO-3E7, co-transfected, His-tag purified

biological target: T1, Full-length isoform 165 of human VEGF-A (Homo sapiens, UniProt P15692-4, strain); test: SPR; BioRad ProteOn XPR36, GLC chip; HER2 and VEGF amine-coupled (about 150 RU); Fab variants injected as analyte in 3-fold dilutions (top 30, 60 or 120 nM); 25C, PBS with 0.05% Tween 20 and 3.4 mM EDTA; 1:1 model; KWT/K uses the parent Fab's K of the same batch; conditions: both partners purified
T1 construct: vascular endothelial growth factor A, human, 165 amino acid isoform; also called VEGF165; source: produced recombinantly and purified
T1 sequence (P15692 whole entry, looked up, stated change not applied, canonical isoform): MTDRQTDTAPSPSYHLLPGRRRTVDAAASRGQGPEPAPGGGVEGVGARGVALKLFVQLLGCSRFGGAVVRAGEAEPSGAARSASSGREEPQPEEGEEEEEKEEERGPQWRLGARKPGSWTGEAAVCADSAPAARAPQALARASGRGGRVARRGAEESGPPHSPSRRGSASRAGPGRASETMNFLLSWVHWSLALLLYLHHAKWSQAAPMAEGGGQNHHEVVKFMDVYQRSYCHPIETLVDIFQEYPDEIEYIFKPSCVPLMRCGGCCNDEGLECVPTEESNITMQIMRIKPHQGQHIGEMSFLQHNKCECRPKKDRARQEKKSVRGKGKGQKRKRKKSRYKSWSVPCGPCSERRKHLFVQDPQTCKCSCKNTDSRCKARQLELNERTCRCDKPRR

binding result	Binder
no binding	B1
no binding	B2

biological target: T2, Full-length isoform 165 of human VEGF-A (Homo sapiens, UniProt P15692-4, strain); test: SPR; BioRad ProteOn XPR36; HER2 or VEGF amine-coupled to a GLC chip (about 150 RU); Fab as analyte, 3-fold dilutions from 30, 60 or 120 nM; 25C; PBS, 0.05% Tween 20, 3.4 mM EDTA; 1:1 binding model, KD from koff/kon; conditions: both partners purified
T2 construct: human vascular endothelial growth factor A, 165 amino acid isoform (VEGF165); also called VEGF165
T2 sequence (P15692 whole entry, looked up, stated change not applied, canonical isoform): as above

Kd [nM]	koff [s⁻¹]	kon [M⁻¹ s⁻¹]	Binder
44 ± 17	0.009	220000	B3
0.5 ± 0.1	7e-05	160000	B4
1.2 ± 0.2	0.00034	290000	B5

biological target: T3, Recombinant soluble human HER2 extracellular domain (Homo sapiens, UniProt P04626); test: as above; conditions: both partners purified
T3 construct: human HER2 (ErbB2), soluble extracellular domain; also called HER2 ectodomain; Receptor-tyrosine kinase ErbB2 soluble ectodomain; source: bought: eBioscience

Kd [nM]	koff [s⁻¹]	kon [M⁻¹ s⁻¹]	Binder
3.6 ± 0.6	0.0013	370000	B3
0.14 ± 0.05	0.00029	2.2e+06	B6
0.14 ± 0.09	0.00028	2.2e+06	B7
0.11 ± 0.02	0.00045	4.4e+06	B8
0.11 ± 0.02	0.00029	2.7e+06	B9
0.15 ± 0.05	0.00039	2.3e+06	B10
0.07 ± 0.01	0.00025	3.8e+06	B11
